{"source": "patent US20140274782A1", "about": "(Stanford University, published 2014)", "binders": {"B1": {"name": "3× Flag-3×MBT (designed binder)", "chain": "EEWSSSQPATGEKKECWSWESYLEEQKAITAPVSLFQDSQAVTHNKNGFKLGMKLEGIDPQHPSMYFILTVAEVCGYRLRLHFDGYSECHDFWVNANSPDIHPAGWFEKTGHKLQPPKGYKEEEFSWSQYLRSTRAQAAPKHLFVSQSHSPPPLGFQVGMKLEAVDRMNPSLVCVASVTDVVDSRFLVHFDNWDDTYDYWCDPSSPYIHPVGWCQKQGKPLTPPQDYPDPDNFCWEKYLEETGASAVPTWAFKVRPPHSFLVNMKLEAVDRRNPALIRVASVEDVEDHRIKIHFDGWSHGYDFWIDADHPDIHPAGWCSKTGHPLQPPLGPREPSSASPGG", "notes": "also called Flag-tagged 3×MBT; 3xFlag-3xMBT; not shown: made by PreScission cleavage of GST-3× Flag-3×MBT"}}, "assay_in_all_cases": "ProtoArray, GST-treated control array;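 note: human protein microarray (about 9500 recombinant proteins) incubated overnight with GST alone plus SAM cofactor as the negative control for G9a SET domain methylation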", "key": {"[1]": {"target": "T1, UBE2S-Ubiquitin-conjugating enzyme E2 S (human, UniProt Q16763 1-222)", "T1 sequence (looked up)": "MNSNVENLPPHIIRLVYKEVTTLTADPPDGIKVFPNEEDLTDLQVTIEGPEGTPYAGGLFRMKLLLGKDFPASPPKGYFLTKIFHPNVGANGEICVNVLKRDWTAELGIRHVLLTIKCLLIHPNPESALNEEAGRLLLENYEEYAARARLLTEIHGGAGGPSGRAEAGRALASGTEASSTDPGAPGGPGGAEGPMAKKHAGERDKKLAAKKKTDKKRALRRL", "protocol": "(§1) Briefly, a ProtoArray (Invitrogen, version 5.0) was incubated overnight with 50 μg of GST or recombinant GSTtagged G9a SET domain and the cofactor SAM.\n(§2) Arrays were analyzed using GenePix Pro 6.1 software (Molecular Devices) and feature values were assigned to proteins using the array list provided by Invitrogen. We designated the following criteria for “hits”: GST array signal-to-noise ratio (SNR) less than or equal to 1.5, G9a array SNR greater than or equal to 10, and a difference between the G9a array SNR and the GST array SNR of greater than or equal to 12. Hits were individually visually validated. Proteins were removed from the list of potential substrates if irregular array features appeared to interfere with the array spots or SNR calculations.\n(§3) Protein arrays bearing almost 9500 recombinant human proteins were methylated using GST-tagged recombinant G9a SET domain or GST alone as a control as shown in FIG. 4. […] Results were filtered for proteins scoring a GST array signal-to-noise ratio (SNR) less than or equal to 1.5, a G9a array SNR greater to or equal to 10, and a difference between the G9a and GST SNRs of greater than or equal to 12. Subsequent proteins were individually inspected for irregular array features."}, "[2]": {"target": "T2, CD79A-B-cell antigen receptor complex-associated protein alpha-chain (human, UniProt P11912 33-226, limits assumed)", "T2 sequence (looked up)": "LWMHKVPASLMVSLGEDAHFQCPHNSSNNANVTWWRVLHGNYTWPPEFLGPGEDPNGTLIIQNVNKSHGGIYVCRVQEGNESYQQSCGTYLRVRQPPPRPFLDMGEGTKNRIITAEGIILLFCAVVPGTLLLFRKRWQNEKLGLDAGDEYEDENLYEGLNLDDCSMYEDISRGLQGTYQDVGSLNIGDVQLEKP", "protocol": "as §1, §2, §3"}, "[3]": {"target": "T3, GAL-galanin prepropeptide (GAL) (human, UniProt P22466 1-123, limits assumed)", "T3 sequence (looked up)": "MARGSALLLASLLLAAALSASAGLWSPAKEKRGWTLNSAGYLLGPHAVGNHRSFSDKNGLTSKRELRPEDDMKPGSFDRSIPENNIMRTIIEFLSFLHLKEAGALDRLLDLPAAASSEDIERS", "protocol": "as §1, §2, §3"}, "[4]": {"target": "T4, GGPS1-Geranylgeranyl pyrophosphate synthetase (human, UniProt O95749 1-300)", "T4 sequence (looked up)": "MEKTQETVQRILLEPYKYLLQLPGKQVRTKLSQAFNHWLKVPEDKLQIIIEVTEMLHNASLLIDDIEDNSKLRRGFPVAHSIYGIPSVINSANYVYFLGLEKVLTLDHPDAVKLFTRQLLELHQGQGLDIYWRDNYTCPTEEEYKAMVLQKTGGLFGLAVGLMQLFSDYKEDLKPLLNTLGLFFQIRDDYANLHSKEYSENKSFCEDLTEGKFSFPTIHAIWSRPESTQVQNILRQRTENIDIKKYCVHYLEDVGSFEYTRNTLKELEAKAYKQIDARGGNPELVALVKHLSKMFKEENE", "protocol": "as §1, §2, §3"}, "[5]": {"target": "LOC400500-PREDICTED: Homo sapiens hypothetical LOC400500 (LOC400500) (human)", "protocol": "as §1, §2, §3"}, "[6]": {"target": "T5, CUTC-cutC copper transporter homolog (E. coli) (CUTC) (human, UniProt Q9NTM9 1-273)", "T5 sequence (looked up)": "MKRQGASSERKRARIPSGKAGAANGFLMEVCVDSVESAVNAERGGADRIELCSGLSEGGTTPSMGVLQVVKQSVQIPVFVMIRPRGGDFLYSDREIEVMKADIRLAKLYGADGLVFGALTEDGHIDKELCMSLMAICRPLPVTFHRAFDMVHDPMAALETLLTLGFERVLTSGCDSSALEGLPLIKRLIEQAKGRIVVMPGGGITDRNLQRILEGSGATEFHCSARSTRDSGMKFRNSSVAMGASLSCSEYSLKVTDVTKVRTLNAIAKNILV", "protocol": "as §1, §2, §3"}, "[7]": {"target": "T6, C10orf58-chromosome 10 open reading frame 58 (C10orf58) (human, UniProt Q9BRX8 1-229, limits assumed)", "T6 sequence (looked up)": "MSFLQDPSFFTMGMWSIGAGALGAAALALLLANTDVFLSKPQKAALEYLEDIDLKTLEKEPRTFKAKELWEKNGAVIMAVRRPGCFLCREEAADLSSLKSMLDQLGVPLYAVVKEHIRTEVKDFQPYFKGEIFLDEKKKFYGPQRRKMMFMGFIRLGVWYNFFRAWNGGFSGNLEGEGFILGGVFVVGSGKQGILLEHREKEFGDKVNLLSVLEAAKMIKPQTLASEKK", "protocol": "as §1, §2, §3"}, "[8]": {"target": "T7, SEC22B-Vesicle-trafficking protein SEC22b (human, UniProt O75396 1-215)", "T7 sequence (looked up)": "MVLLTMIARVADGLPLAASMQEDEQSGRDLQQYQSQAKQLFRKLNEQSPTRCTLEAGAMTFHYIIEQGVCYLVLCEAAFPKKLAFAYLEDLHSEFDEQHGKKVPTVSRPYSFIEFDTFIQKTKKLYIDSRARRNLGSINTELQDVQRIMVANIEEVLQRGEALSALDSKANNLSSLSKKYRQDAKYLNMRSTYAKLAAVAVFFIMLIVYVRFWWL", "protocol": "as §1, §2, §3"}, "[9]": {"target": "CA13-carbonic anhydrase XIII (CA13) (human, UniProt Q8N1Q1 1-262)", "sequence (Q8N1Q1 whole entry)": "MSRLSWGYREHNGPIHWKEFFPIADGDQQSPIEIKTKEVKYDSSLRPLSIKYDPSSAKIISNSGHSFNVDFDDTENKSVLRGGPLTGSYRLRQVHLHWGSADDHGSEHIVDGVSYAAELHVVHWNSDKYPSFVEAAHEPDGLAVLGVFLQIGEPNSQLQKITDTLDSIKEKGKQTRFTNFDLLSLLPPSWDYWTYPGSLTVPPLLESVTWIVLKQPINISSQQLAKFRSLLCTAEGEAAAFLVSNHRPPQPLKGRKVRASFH", "protocol": "as §1, §2, §3"}, "[10]": {"target": "T8, SH3YL1-SH3 domain containing, Ysc84-like 1 (S. cerevisiae) (SH3YL1) (human, UniProt Q96HL8 1-342, limits assumed)", "T8 sequence (looked up)": "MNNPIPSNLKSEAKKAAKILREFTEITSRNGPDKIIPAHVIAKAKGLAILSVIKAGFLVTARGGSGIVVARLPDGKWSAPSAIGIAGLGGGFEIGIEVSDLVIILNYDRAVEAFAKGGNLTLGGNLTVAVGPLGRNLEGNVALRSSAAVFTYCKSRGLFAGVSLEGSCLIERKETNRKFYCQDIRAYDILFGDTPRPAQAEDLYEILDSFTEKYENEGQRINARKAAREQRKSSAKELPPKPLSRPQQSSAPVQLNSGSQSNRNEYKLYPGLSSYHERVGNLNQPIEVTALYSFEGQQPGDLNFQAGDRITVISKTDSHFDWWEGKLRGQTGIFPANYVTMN", "protocol": "as §1, §2, §3"}, "[11]": {"target": "T9, TCTA-T-cell leukemia translocation altered gene (TCTA) (human, UniProt P57738 1-103)", "T9 sequence (looked up)": "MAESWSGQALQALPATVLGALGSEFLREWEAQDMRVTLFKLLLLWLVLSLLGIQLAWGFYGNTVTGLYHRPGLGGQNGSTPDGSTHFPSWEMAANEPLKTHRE", "protocol": "as §1, §2, §3"}, "[12]": {"target": "T10, CTXN1-cortexin 1 (CTXN1) (human, UniProt P60606 1-82)", "T10 sequence (looked up)": "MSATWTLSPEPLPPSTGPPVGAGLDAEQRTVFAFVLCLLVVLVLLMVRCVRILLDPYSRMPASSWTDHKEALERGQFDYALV", "protocol": "as §1, §2, §3"}}}
{"binder": "B1", "values": [{"measurement": "GST Average SNR", "setting": "[1]", "value": 0.283}, {"measurement": "GST Average SNR", "setting": "[2]", "value": -0.746}, {"measurement": "GST Average SNR", "setting": "[3]", "value": -0.0625}, {"measurement": "GST Average SNR", "setting": "[4]", "value": -0.483}, {"measurement": "GST Average SNR", "setting": "[5]", "value": -0.119}, {"measurement": "GST Average SNR", "setting": "[6]", "value": 0.667}, {"measurement": "GST Average SNR", "setting": "[7]", "value": 0.966}, {"measurement": "GST Average SNR", "setting": "[8]", "value": -0.797}, {"measurement": "GST Average SNR", "setting": "[9]", "value": 0.728}, {"measurement": "GST Average SNR", "setting": "[10]", "value": 0.377}, {"measurement": "GST Average SNR", "setting": "[11]", "value": 1.18}, {"measurement": "GST Average SNR", "setting": "[12]", "value": 1}]}
